Reference: patent US20200385710

Key:
[1] = tested on: Bxb1 integrase (Mycobacteriophage Bxb1?); assay: cell_activity; details: 0.85% without integrase
[2] = tested on: T1, Bxb1 integrase, codon-optimized with bipartite Xenopus NLS (Mycobacteriophage Bxb1?); assay: cell_activity; details: 1 mM VPA as printed, 27.6% without VPA
T1 sequence: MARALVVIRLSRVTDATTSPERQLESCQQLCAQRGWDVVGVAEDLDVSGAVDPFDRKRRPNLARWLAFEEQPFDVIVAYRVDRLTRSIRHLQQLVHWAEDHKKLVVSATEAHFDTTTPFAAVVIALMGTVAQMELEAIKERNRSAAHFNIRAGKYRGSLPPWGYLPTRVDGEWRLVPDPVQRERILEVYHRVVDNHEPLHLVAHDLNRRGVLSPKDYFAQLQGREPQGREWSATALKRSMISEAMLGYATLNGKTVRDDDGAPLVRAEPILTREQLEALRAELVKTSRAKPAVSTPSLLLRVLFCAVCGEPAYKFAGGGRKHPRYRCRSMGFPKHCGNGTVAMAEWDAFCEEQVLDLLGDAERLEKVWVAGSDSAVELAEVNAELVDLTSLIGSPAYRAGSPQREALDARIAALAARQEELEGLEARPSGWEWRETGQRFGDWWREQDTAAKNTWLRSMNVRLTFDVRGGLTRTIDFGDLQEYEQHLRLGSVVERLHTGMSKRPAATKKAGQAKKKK

| Substance | activity (% GFP-positive cells) ([1]; attB donor partner of attP at H11 in HEK293) | activity (% integration) ([2]; attB donor partner, HEK293 H11) | activity (% GFP-positive cells) ([1]; attP x attB integration at H11 in HEK293, AAVS1 locus 15.4% (0.74% without)) | activity (% integration) ([2]; HEK293 H11 attP, 43.5% at 700 nM VPA) |
| --- | --- | --- | --- | --- |
| Bxb1 attB (donor plasmid with GFP) | 19.4 | 45.2 |  |  |
| Bxb1 attP (landing pad at H11 or AAVS1 locus) |  |  | 19.4 | 45.2 |
